According to PMC3889205 (FEBS letters, 2013):
Read-outs that look alike come from different tables or passages of the source.

Legend:
Assay in all cases: FRET or BRET
[1] = biological target: T1, Cy3-labeled recombinant rat hepatocyte nuclear factor 4α (rat, UniProt P22449 1-474, Cy3 fluorophore label (site not stated))
T1 sequence (looked up): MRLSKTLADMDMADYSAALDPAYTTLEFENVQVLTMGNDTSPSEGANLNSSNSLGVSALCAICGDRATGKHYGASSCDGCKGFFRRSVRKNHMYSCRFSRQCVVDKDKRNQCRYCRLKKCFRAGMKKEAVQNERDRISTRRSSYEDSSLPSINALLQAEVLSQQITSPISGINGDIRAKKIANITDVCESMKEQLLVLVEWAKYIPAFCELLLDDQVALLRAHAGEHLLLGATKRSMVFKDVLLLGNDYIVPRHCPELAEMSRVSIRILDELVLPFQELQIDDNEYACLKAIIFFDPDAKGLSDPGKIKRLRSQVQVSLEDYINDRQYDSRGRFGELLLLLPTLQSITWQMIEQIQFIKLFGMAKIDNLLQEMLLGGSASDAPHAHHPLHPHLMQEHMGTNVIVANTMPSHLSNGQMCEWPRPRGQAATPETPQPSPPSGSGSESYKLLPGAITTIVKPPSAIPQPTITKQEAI

[2] = biological target: T2, Cy3-labeled β-galactosidase (UniProt P00722 1-1024 = β-galactosidase, Cy3 fluorophore label (site not stated))
T2 sequence (P00722 whole entry): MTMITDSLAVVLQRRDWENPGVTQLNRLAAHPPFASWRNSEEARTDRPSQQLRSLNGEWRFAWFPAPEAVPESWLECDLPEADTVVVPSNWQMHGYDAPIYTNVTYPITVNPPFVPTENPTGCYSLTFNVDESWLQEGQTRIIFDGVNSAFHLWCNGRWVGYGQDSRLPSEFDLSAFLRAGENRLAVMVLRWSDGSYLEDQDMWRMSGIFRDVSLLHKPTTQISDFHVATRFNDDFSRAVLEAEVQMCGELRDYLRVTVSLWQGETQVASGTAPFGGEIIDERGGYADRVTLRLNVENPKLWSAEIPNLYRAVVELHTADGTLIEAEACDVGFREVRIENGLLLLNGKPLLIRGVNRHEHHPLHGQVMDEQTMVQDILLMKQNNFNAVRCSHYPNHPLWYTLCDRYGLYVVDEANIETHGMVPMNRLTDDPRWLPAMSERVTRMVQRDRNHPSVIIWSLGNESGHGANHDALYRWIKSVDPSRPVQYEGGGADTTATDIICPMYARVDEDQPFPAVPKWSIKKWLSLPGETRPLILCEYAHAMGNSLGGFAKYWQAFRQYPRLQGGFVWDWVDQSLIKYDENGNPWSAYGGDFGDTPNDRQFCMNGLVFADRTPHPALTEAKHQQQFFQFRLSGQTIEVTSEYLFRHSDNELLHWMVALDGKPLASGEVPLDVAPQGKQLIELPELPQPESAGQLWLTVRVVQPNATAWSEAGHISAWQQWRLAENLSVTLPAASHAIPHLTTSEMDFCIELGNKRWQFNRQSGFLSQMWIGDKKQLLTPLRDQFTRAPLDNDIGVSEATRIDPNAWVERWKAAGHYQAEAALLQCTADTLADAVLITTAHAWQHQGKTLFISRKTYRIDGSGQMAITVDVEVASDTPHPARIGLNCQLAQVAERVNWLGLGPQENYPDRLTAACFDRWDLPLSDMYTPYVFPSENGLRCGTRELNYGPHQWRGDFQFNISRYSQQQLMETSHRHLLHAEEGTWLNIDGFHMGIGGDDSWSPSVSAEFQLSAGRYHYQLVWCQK

[3] = biological target: T1, Cy3-labeled recombinant rat hepatocyte …; remark: listed apart in the source
[4] = biological target: T2, Cy3-labeled β-galactosidase; remark: listed apart in the source

B1: Cy5-labeled recombinant rat liver-type fatty acid binding protein (natural protein, UniProt P02692 1-127, looked up)
chain: MNFSGKYQVQSQENFEPFMKAMGLPEDLIQKGKDIKGVSEIVHEGKKVKLTITYGSKVIHNEFTLGEECELETMTGEKVKAVVKMEGDNKMVTTFKGIKSVTEFNGDTITNTMTLGDIVYKRVSKRI
modifications: Cy5 fluorophore label (site not stated)
For B1, the Kd [1] was 300 nM, the Kd [2] was > 10000 nM and the Kd [3] was 250 nM. The Kd [4] was > 10000 nM.
